{"source": "paper PMC11287749", "about": "“Optical Aptamer-Based Cytokine Nanosensor Detects Macrophage Activation by Bacterial Toxins”", "target": "IL-6 (human recombinant, Invitrogen) (Homo sapiens, UniProt P05231 30-212)", "sequence (P05231 30-212)": "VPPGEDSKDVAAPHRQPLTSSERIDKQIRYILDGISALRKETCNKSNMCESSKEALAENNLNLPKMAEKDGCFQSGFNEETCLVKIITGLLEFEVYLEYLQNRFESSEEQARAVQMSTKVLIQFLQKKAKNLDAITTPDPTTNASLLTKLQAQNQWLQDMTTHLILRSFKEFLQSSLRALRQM", "assay": "SWCNT NIR fluorescence; PBS, 5250 ng/mL IL-6, 3 h; p = 0.66; 0.5 mg/L SWCNT-ssDNA in 1x PBS (or 1x PBS + 10% FBS), 5250 ng/mL IL-6, 120 uL, up to 180 min; pH and temperature not stated in the material", "settings": "protein: commercial", "data": [{"binder": "GTGTGTGTGTGTGTGTGTGTGTGTGTGTGT (ssDNA, noncovalently adsorbed on SWCNT)", "note": "[(GT)15 control]", "values": [{"measurement": "binding result", "value": "no binding"}]}]}
